Reference: patent publication US9872893B2, “Endolysins active against Staphylococcus bacteria, pharmaceutical compositions, and methods relating thereto” (priority 2014, dated 2018)

How the values were obtained:
[1] = circular dichroism melting experiments; format: physicochemical; details: 0.1 mg/ml, 20 mM sodium phosphate buffer pH 7, 20-95° C. at 1° C./min
Description: CD experiments for wild-type (WT) and active-site mutants were performed on a Chirascan CD spectrometer (Applied Photophysics) equipped with a thermoelectrically controlled cell holder. CD spectra were obtained in the far-UV range (190-260 nm) in a 1 mm path length quartz cuvette at 1 nm steps with 5 second signal averaging per data point. Spectra were collected in triplicate, followed by averaging, baseline subtraction, smoothing and conversion to mean residue ellipticity (MRE) by the Pro-Data software (Applied Photophysics). Secondary structure prediction was performed using the Provencher and Glockner method (Provencher S W & Glockner J (1981) Estimation of globular protein secondary structure from circular dichroism. Biochemistry 20(1):33-7) provided by DICHROWEB (Whitmore L & Wallace B A (2004) DICHROWEB, an online server for protein secondary structure analyses from circular dichroism spectroscopic data. Nucleic Acids Res 32:W668-73).
Melting experiments were performed by heating PlyGRCS at a 0.1 mg/ml concentration in 20 mM sodium phosphate buffer pH 7 from 20° C. to 95° C. using a 1° C./min heating rate. MRE was monitored at 218 nm in a 1 mm path length quartz cuvette at 0.5° C. steps with 5 second signal averaging per data point. The melting data was smoothed, normalized and fit with a Boltzmann sigmoidal curve. The first derivative of the melting curve was then taken to determine the temperature (Tm) at which the folded and unfolded protein species in solution were at equilibrium (Fallas J A & Hartgerink J D (2012) Computational design of self-assembling register-specific collagen heterotrimers. Nat Commun 3:1087).

[2] = system: S. aureus NRS-14; assay: cell wall binding by fluorescence microscopy; design: species or system Staphylococcus aureus; details: 10 μg, detected via anti-His antibody and AlexaFluor 488 secondary
Description: An overnight culture of S. aureus NRS-14 was concentrated 5× in BP buffer and was incubated at room temperature with 10 μg SH3_5GRCS containing the 6× His tag for 10 minutes. A control without SH3_5GRCS was also utilized. The samples were washed with PBS and incubated for 10 minutes at room temperature with 1 μl mouse anti-His antibody (Gen Script). After washing with PBS, AlexaFluor-488 conjugated goat anti-mouse IgG (H+L) antibody (1 μl) (Invitrogen) was incubated with samples for an additional 10 minutes. Samples were washed again with PBS before being visualized via fluorescence and bright field microscopy. An Eclipse 80i epifluorescent microscope workstation (Nikon) with X-Cite 120 illuminator (EXFO) and Retiga 2000R CCD camera was used. NIS-Elements software (Nikon) was used for image analysis.

[3] = system: stationary phase S. aureus NRS-14; assay: turbidity reduction assay (lytic activity); format: cell-based, Staphylococcus aureus; details: equimolar concentrations; for lytic activity (in words): isolated domain
Description: Lytic activity was based on turbidity reduction assay (Nelson D C et al. (2012) Endolysins as antimicrobials. Adv Virus Res 83:299-365). Briefly, bacterial cells were centrifuged (4,000 RPM, 5 minutes, 4° C.), re-suspended in buffer and mixed 1:1 (v/v) with endolysin to a final OD600=1. OD600 readings were taken every 15 seconds for 20 minutes at 37° C. Endolysin activity was equated to the Vmax dictated by the linear portion of the resulting killing curve. Each experiment was performed in triplicate.
To determine dose response, PlyGRCS was serially diluted and each dosage (100 μl) was added in triplicate to a 96-well polystyrene microtiter plate (Nest Biotech Co, Ltd) just before addition of bacterial cells (100 μl) according to the turbidity reduction assay described above. For optimum pH determination, bacterial cells were suspended in 40 mM boric acid/phosphoric acid (BP) buffer, pH 3-11, and were challenged against PlyGRCS. The influence of NaCl on PlyGRCS activity was tested in BP buffer at the experimentally determined pH optimum using the same assay. The effect of divalent cations was determined using the turbidity reduction assay with several modifications. First, PlyGRCS was incubated at room temperature in PBS or PBS supplemented with 5 mM EDTA for 10 minutes. Second, the EDTA-treated samples received either no further treatment, or were supplemented with 6 mM CaCl2 or 6 mM MgCl2. Finally, the lytic active of the samples was then immediately assayed and compared to PlyGRCS in PBS prior to EDTA inactivation. Kinetic stability was evaluated (Son B et al. (2012) Characterization of LysB4, an endolysin from the Bacillus cereus-infecting bacteriophage B4. BMC Microbiol 12:33) with minor modifications. Lytic assays were performed in optimal conditions after PlyGRCS was incubated at indicated temperatures for 30 minutes and subsequently recovered on ice for 5 minutes.

[4] = system: Streptococcus pneumoniae, ATCC BAA-334; assay: plate lysis assay (spectrum of lytic activity); format: cell-based; design: key: strong lytic zone = ++; weak lytic zone = +; no lytic zone = −; details: 6 μg
Description: (§1) The PlyGRCS spectrum of lytic activity was performed (Schmelcher M et al. (2012) Chimeric phage lysins act synergistically with lysostaphin to kill mastitis-causing Staphylococcus aureus in murine mammary glands. Appl Environ Microbiol 78(7):2297-305) with minor modifications. Bacterial cells were diluted in sterile PBS to an OD600=1, and 100 μl was spread on each plate. 10 μl spots (600 μg/ml) of PlyGRCS or CHAPGRCS were applied. Plates were incubated overnight at 37° C. Strength of lytic zones was defined qualitatively.

[5] = system: Staphylococcus aureus, NRS-385; assay: plate lysis assay (spectrum of lytic activity); format: cell-based; design: key: strong lytic zone = ++; weak lytic zone = +; no lytic zone = −; details: 6 μg; S. aureus NRS-385, MRSA
Description: as §1

[6] = system: Streptococcus equi, ATCC 9528; assay: plate lysis assay (spectrum of lytic activity); format: cell-based; design: key: strong lytic zone = ++; weak lytic zone = +; no lytic zone = −; details: 6 μg
Description: as §1

[7] = system: Streptococcus suis, 730082; assay: plate lysis assay (spectrum of lytic activity); format: cell-based; design: key: strong lytic zone = ++; weak lytic zone = +; no lytic zone = −; details: 6 μg
Description: as §1

[8] = system: Streptococcus pyogenes, D471; assay: plate lysis assay (spectrum of lytic activity); format: cell-based; design: key: strong lytic zone = ++; weak lytic zone = +; no lytic zone = −; details: 6 μg
Description: as §1

[9] = system: Enterococcus facealis, EF24; assay: plate lysis assay (spectrum of lytic activity); format: cell-based; design: key: strong lytic zone = ++; weak lytic zone = +; no lytic zone = −; details: 6 μg
Description: as §1

[10] = system: Streptococcus uberis, ATCC 700407; assay: plate lysis assay (spectrum of lytic activity); format: cell-based; design: key: strong lytic zone = ++; weak lytic zone = +; no lytic zone = −; details: 6 μg
Description: as §1

[11] = system: Bacillus pumulis, BJ0055; assay: plate lysis assay (spectrum of lytic activity); format: cell-based; design: key: strong lytic zone = ++; weak lytic zone = +; no lytic zone = −; details: 6 μg
Description: as §1

[12] = system: Staphylococcus aureus, NRS-382; assay: plate lysis assay (spectrum of lytic activity); format: cell-based; design: key: strong lytic zone = ++; weak lytic zone = +; no lytic zone = −; details: 6 μg; S. aureus NRS-382, MRSA
Description: as §1

[13] = system: Staphylococcus aureus, NRS-71; assay: plate lysis assay (spectrum of lytic activity); format: cell-based; design: key to strength of lytic zone: strong lytic zone = ++; weak lytic zone = +; no lytic zone = −; details: 6 μg
Description: as §1

[14] = system: Staphylococcus aureus, NRS-14; assay: plate lysis assay (spectrum of lytic activity); format: cell-based; design: key to strength of lytic zone: strong lytic zone = ++; weak lytic zone = +; no lytic zone = −; details: 6 μg; S. aureus NRS-14, VISA
Description: as §1

[15] = system: Staphylococcus epidermidis, NRS-101; assay: plate lysis assay (spectrum of lytic activity); format: cell-based; design: key to strength of lytic zone: strong lytic zone = ++; weak lytic zone = +; no lytic zone = −; details: 6 μg
Description: as §1

[16] = system: Staphylococcus aureus, NRS-384; assay: plate lysis assay (spectrum of lytic activity); format: cell-based; design: key to strength of lytic zone: strong lytic zone = ++; weak lytic zone = +; no lytic zone = −; details: 6 μg
Description: as §1

B1: SH3_5GRCS: PlyGRCS cell wall binding SH3_5 domain, amino acids 150-250, SEQ ID NO: 7 (protein)
chain: NTFGNWKQNQYGTYYRNENATFTCGFLPIFARVGSPKLSEPNGYWFQPNGYTPYDEVCLSDGLVWIGYNWQGTRYYLPVRQWNGKTGNSYSIGLPWGVFS
modifications: Synthetically generated polypeptide (SH3_5GRCS (amino acids 150-250))
[1]
  Tm: 44.5 °C
[2]
  binding to staphylococcal cell wall: possessed the ability to specifically bind staphylococci
[2]; listed as SH3_5 binding domain
  binding to staphylococcal cell wall: interact directly with the staphylococcal cell wall
[3]
  lytic activity (in words): little to no lytic activity
[3]; listed as SH3_5 binding domain
  lytic activity (in words): lacked activity

B2: CHAPGRCS: PlyGRCS catalytic CHAP domain, amino acids 1-140, SEQ ID NO: 6 (protein)
chain: MKSQQQAKEWIYKHEGTGVDFDGAYGFQCMDLAVAYVYYITDGKVRMWGNAKDAINNDFKGLATVYENTPSFKPQLGDVAVYTNSQYGHIQCVISGNLDYYTCLEQNWLGGGFDGWEKATIRTHYYDGVTHFIRPKFSAS
modifications: Synthetically generated polypeptide (CHAPGRCS (amino acids 1-140))
[4]
  strength of lytic zone: −
[5]
  strength of lytic zone: −
[6]
  strength of lytic zone: −
[7]
  strength of lytic zone: −
[8]
  strength of lytic zone: −
[9]
  strength of lytic zone: −
[10]
  strength of lytic zone: −
[11]
  strength of lytic zone: −
[12]
  strength of lytic zone: −
[13]; S. aureus NRS-71
  lytic activity on plates (in words): relatively weak clearing zones
[13]; S. aureus NRS-71, MRSA
  strength of lytic zone: +
[14]
  strength of lytic zone: −
[15]; S. epidermidis NRS-101
  lytic activity on plates (in words): relatively weak clearing zones
[15]; S. epidermidis NRS-101, MRSE
  strength of lytic zone: +
[16]; S. aureus NRS-384
  lytic activity on plates (in words): relatively weak clearing zones
[16]; S. aureus NRS-384, MRSA
  strength of lytic zone: +
[1]
  Tm: 44.8 °C
[3]
  lytic activity relative to full-length PlyGRCS: 8-10%
[3]; listed as CHAP domain
  lytic activity relative to full-length PlyGRCS: about 10%
